Assay results published in US20230416345A1, “NEW TYPE II COLLAGEN BINDING PROTEINS” (Navigo Proteins GmbH, priority 2020, published 2023).

What was measured:
[1] = molecular target: human type II collagen (type II collagen alpha I chain) (human) (UniProt P02458); experiment: SPR, Biacore 3000, Langmuir 1:1 model
[2] = molecular target: human type II collagen (type II collagen alpha I chain) (human) (UniProt P02458); experiment: ELISA, collagen coated on the plate, dilution series of the binder, detection via StrepTag, A 450-600 nm
[3] = molecular target: human type II collagen (type II collagen alpha I chain) (human) (UniProt P02458); experiment: ELISA (KD determination by ELISA, Example 5)

Binder | Kd [1] [nM] | Kd [2] [nM] | Kd [3] [nM]
CID 211999 (SEQ ID NO: 38), dimer of SEQ ID NO: 2 (directly joint monomers) (designed binder, not shown: small tags and cut ends) IAAKFDEAQSAADSEILHLPNLTEQQRHYFRRWLSDDPSVSTHILTQAQHLNDDQAPKIAAKFDEAQSAADSEILHLPNLTEQQRHYFRRWLSDDPSVSTHILTQAQHLNDDQAPKSAWSHPQFEK | 127 | 8.06 | –
210987 (SEQ ID NO: 36) (designed binder, not shown: small tags and cut ends) IAAKFDEAQQAAFYEILHLPNLTEQQRNYFIQWLRDDPSVSLEVLGTAQRLNDSQAPKIAAKFDEAQQLAFYQILHLENLTEEQRNAFIQSLRDDPSVSLEVLGEAIKLNLSQAPK | 169 | – | 460
CID 212000 (SEQ ID NO: 39), dimer of SEQ ID NO: 2 with linker between the monomers (designed binder, not shown: small tags and cut ends) IAAKFDEAQSAADSEILHLPNLTEQQRHYFRRWLSDDPSVSTHILTQAQHLNDDQAPKGGGGSGGGGSGGGGSGGGGSIAAKFDEAQSAADSEILHLPNLTEQQRHYFRRWLSDDPSVSTHILTQAQHLNDDQAPKSAWSHPQFEK | 180 | 6.38 | –
CID 212001 (SEQ ID NO: 41), tetramer of SEQ ID NO: 2 (designed binder, not shown: small tags and cut ends) IAAKFDEAQSAADSEILHLPNLTEQQRHYFRRWLSDDPSVSTHILTQAQHLNDDQAPKIAAKFDEAQSAADSEILHLPNLTEQQRHYFRRWLSDDPSVSTHILTQAQHLNDDQAPKIAAKFDEAQSAADSEILHLPNLTEQQRHYFRRWLSDDPSVSTHILTQAQHLNDDQAPKIAAKFDEAQSAADSEILHLPNLTEQQRHYFRRWLSDDPSVSTHILTQAQHLNDDQAPKSAWSHPQFEK | < 0.5 | 0.3 | –
